According to article PMC11574045, “A cofactor-induced repressive type of transcription factor condensation can be induced by synthetic peptides to suppress tumorigenesis” (The EMBO Journal, 2024):

B1: FOXD4L1 (protein, UniProt Q9NU39 1-408, looked up)
Forkhead box protein D4-like 1: MNLPRAERPRSTPQRSLRDSDGEDGKIDVLGEEEDEDEVEDEEEEASQKFLEQSLQPGLQVARWGGVALPREHIEGGGPSDPSEFGTEFRAPPRSAAASEDARQPAKPPYSYIALITMAILQSPHKRLTLSGICAFISGRFPYYRRKFPAWQNSIRHNLSLNDCFVKIPREPGHPGKGTYWSLDPASQDMFDNGSFLRRRKRFKRHQLTPGAHLPHPFPLPAAHAALHNPRPGPLLGAPALPQPVPGAYPNTAPGRRPYALLHPHPPRYLLLSAPAYAGAPKKAEGADLATPGTLPVLQPSLGPQPWEEGKGLASPPGGGCISFSIESIMQGVRGAGTGAAQSLSPTAWSYCPLLQRPSSLSDNFAATAAASGGGLRQRLRSHQGRGAGRAPVGRVGAAAVSGGGRGL
B2: FOXD4L4 (protein, UniProt Q8WXT5 1-416, looked up)
Forkhead box protein D4-like 4: MNLPRAERPRSTPQRSLRDSDGEDGKIDVLGEEEDEDEVEDEEEEARQQFLEQSLQPGLQVARWGGVALPREHIEGGGGPSDPSEFGTKFRAPPRSAAASEDARQPAKPPYSYIALITMAILQNPHKRLTLSGICAFISGRFPYYRRKFPAWQNSIRHNLSLNDCFVKIPREPGHPGKGNYWSLDPASQDMFDNGSFLRRRKRFKRHQLTPGAHLPHPFPLPAAHAALHNPHPGPLLGAPAPPQPVPGAYPNTAPGRRPYALLHPHPLRYLLLSARVYAGAPKKAEGADLATPAPFPCCSPHLVLSLGRRARVWRRHREADASLSALRVLCKGSGERVQGLRRVCPRPRGATATCSSDHQACCIPKPLPLCCKCPPPLLLGQFCSNSSSIRRTAPTAALPPRARCWAGTCRPRRRC
B3: FOXD4L5 (protein, UniProt Q5VV16 1-416, looked up)
Forkhead box protein D4-like 5: MNLPRAERPRSTPQRSLRDSDGEDGKIDVLGEEEDEDEVEDEEEEARQQFLEQSLQPGLQVARWGGVALPREHIEGGGGPSDPSEFGTKFRAPPRSAAASEDARQPAKPPYSYIALITMAILQNPHKRLTLSGICAFISGRFPYYRRKFPAWQNSIRHNLSLNDCFVKIPREPGHPGKGNYWSLDPASQDMFDNGSFLRRRKRFKRHQLTPGAHLPHPFPLPAAHAALHNPHPGPLLGAPAPPQPVPGAYPNTAPGRCPYALLHPHPLRYLLLSAPVYAGAPKKAEGADLATPAPFPCCSPHLVLSLGRRARVWRRHREADASLSALRVLCKGSGERVQGLRRVCPRPRGATATCSSDHQACCIPKPLPLCCKCPPPLLLGQFCSNSSSIRRTAPTAALPPRARCWAGTCRPRRRC
B4: FOXE3 (protein, UniProt Q13461 1-319, looked up)
Forkhead box protein E3: MAGRSDMDPPAAFSGFPALPAVAPSGPPPSPLAGAEPGREPEEAAAGRGEAAPTPAPGPGRRRRRPLQRGKPPYSYIALIAMALAHAPGRRLTLAAIYRFITERFAFYRDSPRKWQNSIRHNLTLNDCFVKVPREPGNPGKGNYWTLDPAAADMFDNGSFLRRRKRFKRAELPAHAAAAPGPPLPFPYAPYAPAPGPALLVPPPSAGPGPSPPARLFSVDSLVNLQPELAGLGAPEPPCCAAPDAAAAAFPPCAAAASPPLYSQVPDRLVLPATRPGPGPLPAEPLLALAGPAAALGPLSPGEAYLRQPGFASGLERYL
B5: FOXB2 (protein, UniProt Q5VYV0 1-432, looked up)
Forkhead box protein B2: MPRPGKSSYSDQKPPYSYISLTAMAIQHSAEKMLPLSDIYKFIMERFPYYREHTQRWQNSLRHNLSFNDCFIKIPRRPDQPGKGSFWALHPDCGDMFENGSFLRRRKRFKVLRADHTHLHAGSTKSAPGAGPGGHLHPHHHHHPHHHHHHHAAAHHHHHHHPPQPPPPPPPPPPHMVHYFHQQPPTAPQPPPHLPSQPPQQPPQQSQPQQPSHPGKMQEAAAVAAAAAAAAAAAVGSVGRLSQFPPYGLGSAAAAAAAAAASTSGFKHPFAIENIIGRDYKGVLQAGGLPLASVMHHLGYPVPGQLGNVVSSVWPHVGVMDSVAAAAAAAAAAGVPVGPEYGAFGVPVKSLCHSASQSLPAMPVPIKPTPALPPVSALQPGLTVPAASQQPPAPSTVCSAAAASPVASLLEPTAPTSAESKGGSLHSVLVHS

The molecules below were run on HEK293FT cells transfected with TF library (assay: Screening of TF condensates based on fluorescent puncta). Conditions: Figure 1B numerical data; TF library screen, one value per transcriptional factor.
Type: cell-based
How it was run: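 Condensate formation is scored as Alexa 488-labelled puncta after Flag- or GAL4-tag immunostaining of fixed HEK293FT cells expressing individual TFs, with a 12 h glucose-free or glucose-containing culture preceding fixation.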

| Molecule | Z score of condensed fraction |
| --- | --- |
| B1 | -0.9826 |
| B2 | 0.1205 |
| B3 | -0.7466 |
| B4 | -0.8488 |
| B5 | -0.2645 |
